Columns and labels:
GST-Smad1 = GST-Smad1 (UniProt Q15797)
GST-Smad2 (full-length) = GST-Smad2 (full-length) (UniProt Q15796)
GST-Smad3deltaMH1 = GST-Smad3deltaMH1 (UniProt P84022)
Chain of GST-Smad3deltaMH1 (P84022 137-425, stated change not applied): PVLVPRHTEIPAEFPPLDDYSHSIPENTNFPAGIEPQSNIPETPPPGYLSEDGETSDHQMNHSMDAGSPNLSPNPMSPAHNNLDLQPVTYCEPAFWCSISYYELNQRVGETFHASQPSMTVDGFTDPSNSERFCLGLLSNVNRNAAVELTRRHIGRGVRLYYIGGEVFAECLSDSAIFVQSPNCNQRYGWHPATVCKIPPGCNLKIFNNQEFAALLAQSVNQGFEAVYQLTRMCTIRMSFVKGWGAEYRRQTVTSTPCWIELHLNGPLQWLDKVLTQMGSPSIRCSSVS

Chain of GST-Smad1 (Q15797 whole entry): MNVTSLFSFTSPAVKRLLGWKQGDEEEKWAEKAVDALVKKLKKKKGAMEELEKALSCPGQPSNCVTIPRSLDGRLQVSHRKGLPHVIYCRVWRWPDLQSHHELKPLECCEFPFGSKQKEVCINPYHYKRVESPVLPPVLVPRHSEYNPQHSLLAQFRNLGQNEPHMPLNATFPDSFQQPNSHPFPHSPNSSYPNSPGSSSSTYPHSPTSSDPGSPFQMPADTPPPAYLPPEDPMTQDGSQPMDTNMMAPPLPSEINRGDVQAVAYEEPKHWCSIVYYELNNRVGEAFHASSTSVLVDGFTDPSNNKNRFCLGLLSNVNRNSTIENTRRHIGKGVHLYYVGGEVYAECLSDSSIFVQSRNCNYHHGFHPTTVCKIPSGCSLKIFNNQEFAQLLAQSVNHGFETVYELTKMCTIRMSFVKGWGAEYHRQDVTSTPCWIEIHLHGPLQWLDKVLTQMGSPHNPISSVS
Chain of GST-Smad2 (full-length) (Q15796 whole entry): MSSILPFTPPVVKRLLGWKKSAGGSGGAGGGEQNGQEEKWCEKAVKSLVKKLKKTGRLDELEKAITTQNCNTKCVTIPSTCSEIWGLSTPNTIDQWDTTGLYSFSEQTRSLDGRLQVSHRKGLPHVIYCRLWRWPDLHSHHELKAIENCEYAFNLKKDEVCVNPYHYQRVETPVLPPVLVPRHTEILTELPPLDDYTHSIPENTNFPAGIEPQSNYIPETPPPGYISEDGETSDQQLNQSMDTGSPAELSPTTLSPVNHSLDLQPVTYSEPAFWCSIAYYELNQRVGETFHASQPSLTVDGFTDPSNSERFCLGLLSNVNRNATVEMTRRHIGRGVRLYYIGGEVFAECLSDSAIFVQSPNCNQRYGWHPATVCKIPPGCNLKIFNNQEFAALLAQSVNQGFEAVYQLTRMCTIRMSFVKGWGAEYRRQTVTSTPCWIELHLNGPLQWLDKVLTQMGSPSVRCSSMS

## GST-TβR-I (GST fused to the cytoplasmic part, residues 148-503, of constitutively active TβR-I T204D, FLAG-tagged at the C-terminus)
GST-Smad1
  phosphorylation of substrate in in vitro kinase assay (32P, SDS-PAGE, phosphorimager): no phosphorylation of GST-Smad1 was observed
GST-Smad2 (full-length)
  phosphorylation of substrate in in vitro kinase assay (32P, SDS-PAGE, phosphorimager): Purified GST-TβR-I kinase efficiently phosphorylated itself, as well as the C-terminal part of Smad3 and full-length GST-Smad2 as exogenous substrates
GST-Smad3deltaMH1
  phosphorylation of substrate in in vitro kinase assay (32P, SDS-PAGE, phosphorimager): Purified GST-TβR-I kinase efficiently phosphorylated itself, as well as the C-terminal part of Smad3 and full-length GST-Smad2 as exogenous substrates

— patent US20050136043
